Laboratory results published in US20100166741A1 (Genentech, published 2010).

Target: T1, miniBR3 displayed on M13 phage (epitope-tagged, fused to gene-8 major coat protein) (human; bacteriophage M13, UniProt Q96RJ3 17-42)
T1 construct: range 17-42; also called p-miniBR3
Assay: shotgun Ala scan, miniBR3 phage
Source text: Each “partial miniBR3” template was used as the template for Kunkel mutagenesis with mutagenic oligonucleotides designed to replace the template stop codons with the complementary region of miniBR3, while simultaneously introducing mutations at the desired sites. At the sites of mutation, wild-type codons were replaced with the corresponding shotgun alanine codon (Weiss, supra). Each of these two libraries allowed for mutations at 11 residues in miniBR3 with no mutated positions in common between libraries. Library 1 encoded shotgun codons at positions 17, 18, 20-23, 25, 27, 28, 30, and 33, while library 2 encoded shotgun codons at positions 26, 29, 31, 34, and 36-42. Each library contained 2×10⁹ members, allowing for complete representation of the theoretical diversity (>10⁴-fold excess).
The display selection was included in order to normalize the anti-BR3 antibody-binding selection for expression differences between library members. Phage eluted from each target were propagated in E. coli XL1-blue; amplified phage were used for selection against the same target as in the previous round. After two rounds of selection, 48 individual clones from each library and selection were grown in a 96-well format in 400 L of 2YT medium supplemented with carbenicillin and KO7 helper phage.
F-values were calculated as previously described (Weiss, supra-, Gordon, supra). […] Deleterious mutations have ratios >1, while advantageous mutations have ratios <1; boldface indicates a >10-fold effect.

Binder | F value, mutation at BR3 A22 | F value, mutation at BR3 A34 | F value, mutation at BR3 D26 | F value, mutation at BR3 E23 | F value, mutation at BR3 F25 | F value, mutation at BR3 G36 | F value, mutation at BR3 H31 | F value, mutation at BR3 L27 | F value, mutation at BR3 L28 | F value, mutation at BR3 L37 | F value, mutation at BR3 L38 | F value, mutation at BR3 P18 | F value, mutation at BR3 P21 | F value, mutation at BR3 P41 | F value, mutation at BR3 R30 | F value, mutation at BR3 R39 | F value, mutation at BR3 R42 | F value, mutation at BR3 T17 | F value, mutation at BR3 T40 | F value, mutation at BR3 V20 | further results
11G9 (antibody, V domains shown, also called chimeric 11G9) VH: DVQLQESGPSLVKPSQTLSLTCSVTGDSITSGYWNWIRKFPGNKLEYMGYISYSGSTYYNPSLKSRISITRDTSKNQFYLQLLSVTTEDTATYYCAGLDGLYWYFDVWGAGTLVTVSS VL: DIVMTQTPLSLPVSLGDQASISCRSSQSLVHSNGNTYLHWYLQKPGQSPKLLIYKVSNRFSGVPDRFSGSGSGTDFTLKISRVEAEDLGVYFCSQSTHVPPFTFGSGT | 45 | 32 | 8.5 | 6.9 | 38 | 1.8 | 2.8 | 1.1 | 0.4 | 0.7 | 0.9 | 0.5 | 40 | 1.7 | 1.7 | 3.1 | 0.9 | 0.5 | 0.5 | 1.1 | F value, mutation at BR3 V29: 1; F value, mutation at BR3 V33: 24
V3-1 (antibody, V domains shown) VH: EVQLVESGGGLVQPGGSLRLSCAASGFTISSNSIHWVRQAPGKGLEWVAWITPSDGNTDYADSVKGRFTISADTSKNTAYLQMNSLRAEDTAVYYCARRVCYNRLGVCAGGMDYWGQGTLVTVSS VL: DIQMTQSPSSLSASVGDRVTITCRASQDVSTAVAWYQQKPGKAPKLLIYSASFLYSGVPSRFSGSGSGTDFTLTISSLQPEDFATYYCQQSRITPPTFGQGTKVEIKR | 0.7 | 13 | 8.7 | 2.4 | 21 | 0.7 | 0.1 | 1.4 | 98 | 0.7 | 1.4 | 0.8 | 0.6 | 1.6 | 20 | 0.4 | 0.9 | 0.5 | 0.6 | 0.9 | F value, mutation at BR3 V29: 92; F value, mutation at BR3 V33: 14
